Measurements published in patent US11833164B2, “Methods of treating Fabry disease in patients having a mutation in the GLA gene” (Amicus Therapeutics, Inc., priority 2019, dated 2023).

B1: A318T (protein)
chain: MQLRNPELHLGCALALRFLALVSWDIPGARALDNGLARTPTMGWLHWERFMCNLDCQEEPDSCISEKLFMEMAELMVSEGWKDAGYEYLCIDDCWMAPQRDSEGRLQADPQRFPHGIRQLANYVHSKGLKLGIYADVGNKTCAGFPGSFGYYDIDAQTFADWGVDLLKFDGCYCDSLENLADGYKHMSLALNRTGRSIVYSCEWPLYMWPFQKPNYTEIRQYCNHWRNFADIDDSWKSIKSILDWTSFNQERIVDVAGPGGWNDPDMLVIGNFGLSWNQQVTQMALWAIMAAPLFMSNDLRHISPQAKALLQDKDVITINQDPLGKQGYQLRQGDNFEVWERPLSGLAWAVAMINRQEIGGPRSYTIAVASLGKGVACNPACFITQLLPVKRKLGFYEWTSRLRSHINPTGTVLLQLENTMQMSLKDLL
B2: A318V (protein)
chain: MQLRNPELHLGCALALRFLALVSWDIPGARALDNGLARTPTMGWLHWERFMCNLDCQEEPDSCISEKLFMEMAELMVSEGWKDAGYEYLCIDDCWMAPQRDSEGRLQADPQRFPHGIRQLANYVHSKGLKLGIYADVGNKTCAGFPGSFGYYDIDAQTFADWGVDLLKFDGCYCDSLENLADGYKHMSLALNRTGRSIVYSCEWPLYMWPFQKPNYTEIRQYCNHWRNFADIDDSWKSIKSILDWTSFNQERIVDVAGPGGWNDPDMLVIGNFGLSWNQQVTQMALWAIMAAPLFMSNDLRHISPQAKALLQDKDVIVINQDPLGKQGYQLRQGDNFEVWERPLSGLAWAVAMINRQEIGGPRSYTIAVASLGKGVACNPACFITQLLPVKRKLGFYEWTSRLRSHINPTGTVLLQLENTMQMSLKDLL
B3: I319M (protein)
chain: MQLRNPELHLGCALALRFLALVSWDIPGARALDNGLARTPTMGWLHWERFMCNLDCQEEPDSCISEKLFMEMAELMVSEGWKDAGYEYLCIDDCWMAPQRDSEGRLQADPQRFPHGIRQLANYVHSKGLKLGIYADVGNKTCAGFPGSFGYYDIDAQTFADWGVDLLKFDGCYCDSLENLADGYKHMSLALNRTGRSIVYSCEWPLYMWPFQKPNYTEIRQYCNHWRNFADIDDSWKSIKSILDWTSFNQERIVDVAGPGGWNDPDMLVIGNFGLSWNQQVTQMALWAIMAAPLFMSNDLRHISPQAKALLQDKDVIAMNQDPLGKQGYQLRQGDNFEVWERPLSGLAWAVAMINRQEIGGPRSYTIAVASLGKGVACNPACFITQLLPVKRKLGFYEWTSRLRSHINPTGTVLLQLENTMQMSLKDLL
B4: N320S (protein)
chain: MQLRNPELHLGCALALRFLALVSWDIPGARALDNGLARTPTMGWLHWERFMCNLDCQEEPDSCISEKLFMEMAELMVSEGWKDAGYEYLCIDDCWMAPQRDSEGRLQADPQRFPHGIRQLANYVHSKGLKLGIYADVGNKTCAGFPGSFGYYDIDAQTFADWGVDLLKFDGCYCDSLENLADGYKHMSLALNRTGRSIVYSCEWPLYMWPFQKPNYTEIRQYCNHWRNFADIDDSWKSIKSILDWTSFNQERIVDVAGPGGWNDPDMLVIGNFGLSWNQQVTQMALWAIMAAPLFMSNDLRHISPQAKALLQDKDVIAISQDPLGKQGYQLRQGDNFEVWERPLSGLAWAVAMINRQEIGGPRSYTIAVASLGKGVACNPACFITQLLPVKRKLGFYEWTSRLRSHINPTGTVLLQLENTMQMSLKDLL
B5: N320T (protein)
chain: MQLRNPELHLGCALALRFLALVSWDIPGARALDNGLARTPTMGWLHWERFMCNLDCQEEPDSCISEKLFMEMAELMVSEGWKDAGYEYLCIDDCWMAPQRDSEGRLQADPQRFPHGIRQLANYVHSKGLKLGIYADVGNKTCAGFPGSFGYYDIDAQTFADWGVDLLKFDGCYCDSLENLADGYKHMSLALNRTGRSIVYSCEWPLYMWPFQKPNYTEIRQYCNHWRNFADIDDSWKSIKSILDWTSFNQERIVDVAGPGGWNDPDMLVIGNFGLSWNQQVTQMALWAIMAAPLFMSNDLRHISPQAKALLQDKDVIAITQDPLGKQGYQLRQGDNFEVWERPLSGLAWAVAMINRQEIGGPRSYTIAVASLGKGVACNPACFITQLLPVKRKLGFYEWTSRLRSHINPTGTVLLQLENTMQMSLKDLL
B6: Q321K (protein)
chain: MQLRNPELHLGCALALRFLALVSWDIPGARALDNGLARTPTMGWLHWERFMCNLDCQEEPDSCISEKLFMEMAELMVSEGWKDAGYEYLCIDDCWMAPQRDSEGRLQADPQRFPHGIRQLANYVHSKGLKLGIYADVGNKTCAGFPGSFGYYDIDAQTFADWGVDLLKFDGCYCDSLENLADGYKHMSLALNRTGRSIVYSCEWPLYMWPFQKPNYTEIRQYCNHWRNFADIDDSWKSIKSILDWTSFNQERIVDVAGPGGWNDPDMLVIGNFGLSWNQQVTQMALWAIMAAPLFMSNDLRHISPQAKALLQDKDVIAINKDPLGKQGYQLRQGDNFEVWERPLSGLAWAVAMINRQEIGGPRSYTIAVASLGKGVACNPACFITQLLPVKRKLGFYEWTSRLRSHINPTGTVLLQLENTMQMSLKDLL
B7: D322A (protein)
chain: MQLRNPELHLGCALALRFLALVSWDIPGARALDNGLARTPTMGWLHWERFMCNLDCQEEPDSCISEKLFMEMAELMVSEGWKDAGYEYLCIDDCWMAPQRDSEGRLQADPQRFPHGIRQLANYVHSKGLKLGIYADVGNKTCAGFPGSFGYYDIDAQTFADWGVDLLKFDGCYCDSLENLADGYKHMSLALNRTGRSIVYSCEWPLYMWPFQKPNYTEIRQYCNHWRNFADIDDSWKSIKSILDWTSFNQERIVDVAGPGGWNDPDMLVIGNFGLSWNQQVTQMALWAIMAAPLFMSNDLRHISPQAKALLQDKDVIAINQAPLGKQGYQLRQGDNFEVWERPLSGLAWAVAMINRQEIGGPRSYTIAVASLGKGVACNPACFITQLLPVKRKLGFYEWTSRLRSHINPTGTVLLQLENTMQMSLKDLL
B8: D322V (protein)
chain: MQLRNPELHLGCALALRFLALVSWDIPGARALDNGLARTPTMGWLHWERFMCNLDCQEEPDSCISEKLFMEMAELMVSEGWKDAGYEYLCIDDCWMAPQRDSEGRLQADPQRFPHGIRQLANYVHSKGLKLGIYADVGNKTCAGFPGSFGYYDIDAQTFADWGVDLLKFDGCYCDSLENLADGYKHMSLALNRTGRSIVYSCEWPLYMWPFQKPNYTEIRQYCNHWRNFADIDDSWKSIKSILDWTSFNQERIVDVAGPGGWNDPDMLVIGNFGLSWNQQVTQMALWAIMAAPLFMSNDLRHISPQAKALLQDKDVIAINQVPLGKQGYQLRQGDNFEVWERPLSGLAWAVAMINRQEIGGPRSYTIAVASLGKGVACNPACFITQLLPVKRKLGFYEWTSRLRSHINPTGTVLLQLENTMQMSLKDLL
B9: L324V (protein)
chain: MQLRNPELHLGCALALRFLALVSWDIPGARALDNGLARTPTMGWLHWERFMCNLDCQEEPDSCISEKLFMEMAELMVSEGWKDAGYEYLCIDDCWMAPQRDSEGRLQADPQRFPHGIRQLANYVHSKGLKLGIYADVGNKTCAGFPGSFGYYDIDAQTFADWGVDLLKFDGCYCDSLENLADGYKHMSLALNRTGRSIVYSCEWPLYMWPFQKPNYTEIRQYCNHWRNFADIDDSWKSIKSILDWTSFNQERIVDVAGPGGWNDPDMLVIGNFGLSWNQQVTQMALWAIMAAPLFMSNDLRHISPQAKALLQDKDVIAINQDPVGKQGYQLRQGDNFEVWERPLSGLAWAVAMINRQEIGGPRSYTIAVASLGKGVACNPACFITQLLPVKRKLGFYEWTSRLRSHINPTGTVLLQLENTMQMSLKDLL

System: mutant form of α-Gal A expressed in HEK-293 cells
Assay: HEK assay (GLP HEK / Migalastat Amenability Assay): α-Gal A activity in lysates of transiently transfected HEK-293 cells incubated with or without 10 μM migalastat
Type: cell-based, human
Conditions: for Absolute increase (% WT) / Relative increase: 10 μM migalastat versus baseline; for Baseline α-Gal A activity (% WT): absence of migalastat; for Baseline α-Gal A activity (% WT) / 10 μM migalastat α-Gal A activity (% WT): percentage of baseline wild-type α-Gal A activity; for Baseline α-Gal A activity (% WT) / Baseline α-Gal A activity / 10 μM migalastat α-Gal A activity / 10 μM migalastat α-Gal A activity (% WT): mean ± SEM; for Baseline α-Gal A activity / 10 μM migalastat α-Gal A activity: lysates of HEK-293 cells transiently transfected with the mutant form; for Baseline α-Gal A activity: incubated 5 days in absence of migalastat; for 10 μM migalastat α-Gal A activity: incubated 5 days with 10 μM migalastat; for 10 μM migalastat α-Gal A activity (% WT): with 10 μM migalastat, 5 days
In short: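 Activity reported as 4-MU released (nmol/mg/hr), mean±SEM, from lysates of transiently transfected HEK-293 cells expressing mutant α-Gal A, cultured with or without 10 μM migalastat.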

Molecule	Absolute increase (% WT)	Relative increase	Baseline α-Gal A activity (% WT)	Baseline α-Gal A activity [nmol/mg/h]	10 μM migalastat α-Gal A activity [nmol/mg/h]	10 μM migalastat α-Gal A activity (% WT)
B1	17.7	1.3	45.2 ± 2.8	16954 ± 1483	22296 ± 1232	62.9 ± 4.6
B2	16.5	1.4	37.9 ± 2.1	14603 ± 1377	19658 ± 1108	54.4 ± 3.5
B3	9.4	1.2	47.4 ± 2.2	12191 ± 433	14802 ± 727	56.8 ± 2.3
B4	23.9	1.3	82.9 ± 4.5	21562 ± 1285	28097 ± 1522	106.7 ± 3.9
B5	21.8	2.0	21.6 ± 1.5	5597 ± 442	11276 ± 658	43.3 ± 1.9
B6	32.0	2.1	29.2 ± 2	7590 ± 520	16046 ± 870	61.2 ± 2.4
B7	15.3	3.2	6.8 ± 0.4	1908 ± 139	6170 ± 310	22.2 ± 1
B8	11.7	5.6	2.6 ± 0.2	714 ± 53	3989 ± 217	14.3 ± 0.6
B9	13.0	1.2	57.2 ± 2.1	17027 ± 1167	20866 ± 1331	70.2 ± 2
